The source of these data is patent publication US20100124555A1, “Compositions and Methods for Treating Pancreatic Tumors” (UNIVERSITE DE LA MEDITERRANEE, priority 2007, published 2010).

In assay [1] the test system is SOJ-6 cells. In words: Apoptosis by caspase activity (CaspACE FITC-VAD-fmk in situ marker). Format: cell-based, human. The protocol: Cells grown in 8-well plates (Polystyrene vessel, BD Falcon) were treated with mAb16D10 or mouse IgM in RPMI with inactivated FCS for 24 hours prior to the addition of CaspACE FITC-VAD-fmk in situ marker (Promega) at a final concentration of 10 μM in the culture medium according to manufacturer's instructions. Then cells were washed in PBS, fixed for 15 minutes in 2% paraformaldehyde, and washed once again. Upon caspase action on FITC-VAD-fmk, apoptotic cells become fluorescent and the number of fluorescent cells was determined in triplicate on collections of 10 fields randomly examined under the fluorescent microscope.

Assay [2] deals with SOJ-6 cells. Put plainly: Nuclear staining with DAPI (nuclear fragmentation). Format: cell-based, human. As to conditions: RPMI induced no apoptosis. As to the method:
After treatment with mAb16D10 or cisplatin, cells were washed in ice-cold PBS, fixed and permeablized with 70% ethanol for 5 min at […] and staining with diluted 1/1000 DAPI solution in PBS for 1 min at room temperature. The cells were then washed with PBS. The nuclear morphology of cells was examined by fluorescence microscopy.

Assay [3] relates to Bcl-2, Bax, caspases 8 and 9, PARP in SOJ-6 cells. Put plainly: SDS-PAGE and western blot of apoptosis proteins. Format: cell-based, human. As to conditions: SOJ-6 cells, 24 h. As to the method: SOJ-6 cells were grown in 6-well culture plates in RPMI 1640 medium with 10% FCS. At subconfluency, the medium was removed and replaced for 24 hours by fresh RPMI medium with 10% inactivated FCS. SOJ-6 cells were then incubated with mAb16D10 or Cisplatin for 24 hours. At the end of incubation, cells were washed three times with ice-cold PBS (without […] and Mg^++) harvested and pelleted by centrifugation. Pellets were washed twice and lysed at 4° C. in 0.5 ml of lysis buffer (10 mM Tris-HCl pH 7.4, 150 mM NaCl, 1% Triton X-100, 1 mM benzamidine and phosphatase inhibitors). After lysis, homogenates were clarified by centrifugation at 10,000 g for 10 min at 4° C. An aliquot was saved for protein determination using the bicinchoninic acid assay (Pierce, Rockford, Ill.). Proteins (50 μg/lane) in reducing SDS buffer were separated onto 10, 12, or 15% polyacrylamide with 0.1% SDS (according to the molecular weight range of proteins to be separated). After electrophoretic migration, proteins were silver stained. Alternatively, proteins were transferred onto nitrocellulose membranes using a Mini Transblot electrophoretic cell (BioRad, Hercule, Oreg.), and transferred proteins were immunodetected by using appropriate primary and secondary antibodies. After washes, membranes were developed with a chemoluminescent substrate according to the manufacturer's instructions (Roche Diagnostics, Switzerland). In each experiment, a control was included by omitting primary antibodies or by using a non-immune serum.
In general terms: In western blotting, separated proteins are transferred to a membrane and probed.

For assay [4], the system named is SOJ-6 cells. In words: MTT cell growth and proliferation assay, SOJ-6. Format: cell-based, human. As to conditions: SOJ-6, increasing concentrations of antibody, 24 h. As to the method: Cell proliferation was determined using MTT assay as previously described (Mosmann et al., 1983 J Immunol Methods, 65(1-2):55-63). Briefly, cells were seeded at subconfluence in appropriate complete media containing 10% FCS in 96-well culture plates. Media were replaced for 24 h by fresh media with 10% inactivated FCS, including increasing concentrations of antibodies directed against FAPP (pAbL64, mAbJ28 and mAb16D10). Cells were washed with PBS and incubated with 100 μl of MTT (0.5 mg/ml) in complete media for 3 h, washed with PBS and finally incubated with DMSO for 30 min at 37° C. Cell growth was determined by measuring absorbance at 550 nm using a MR 5000 microplate spectrophotometer. All independent determinations were done in triplicate and compared to control.

The subject of the next assay is PANC-1 cells. In words: Cell-cycle distribution by propidium iodide flow cytometry, PANC-1. Format: cell-based, human.
Assay [5] deals with 16D10 antigen on PANC-1 cells. Put plainly: Flow cytometry detection of antigen at the cell surface, PANC-1. Format: binding, human. The protocol:
Detection of antigens at the surface of SOJ-6 and PANC-1 cells was carried out by indirect fluorescence under the following conditions: cells were released from culture plates by treatment with a non enzymatic dissociation liquid (Calbiochem) for 15 minutes at 37° C. All subsequent steps were carried out at 4° C. The cells were washed with phosphate buffered saline (PBS), fixed with 2% paraformaldehyde in PBS for 15 minutes, and washed with 1% BSA in PBS for 15 minutes. Antigens were exposed for 2 hours to specific antibodies, washed with PBS, and finally incubated for 45 minutes with appropriate FITC-labeled secondary antibodies. Cells were then washed, resuspended in isoflow buffer, and analyzed on Coulter FACSCalibur device.
Flow cytometry experiments were carried out to investigate whether the antigen recognized by 16D10 was found on the surface of cells. Results are shown in FIGS. 14 and 15, representing SOJ-6 and PANC-1 cells, respectively. […] In each case, 16D10 binding was compared to a negative control and a control mouse IgM (Sigma).
For orientation: Flow cytometry measures light scatter and fluorescence of single cells or particles in a stream.

For a further assay, the system named is living cells in culture. In words: Pulse-chase confocal microscopy internalization. Format: cell-based. As to conditions: pulse 30 min at 4° C.; chase 2 h at 37° C. The protocol:
A pulse-chase experiment using confocal microscopy was used to assess the interaction of the IgM 16D10 antibody with living cells in culture. (Pulse: 30 min at 4° C.; Chase: 0 or 2 h at 37° C. in culture medium.) It was observed that virtually all of the mAb was internalized within 2 h. A fraction of the mAbs co-localized with LAMP1.

B1: 16D10: IgM monoclonal antibody recognizing FAPP/BSDL; producing cells deposited with the CNCM under the number I-3188 (antibody, listed as Mus musculus, V domains shown)
VH: QVQLQQSDAELVKPGASVKISCKASGYTFTDHAIHWVKQKPEQGLEWIGYISPGNDVIKFNEKFKGKATLTADKSSSTAYMQLNSLTSEDSAVYFCKRSEGGVFDYWGQGTTLTVS
VL: NIMMTQSPSSLAVSAGEKVTMSCKSSQSVLYSSNQKNFLAWYQQKPGQSPKLLIYWASTRESGVPDRFTGSGSGTDFTLTISSVQAEDLAVYYCHQYLSSYTFGGGTKLEIK
For B1, the “apoptotic cellular death of SOJ-6 cells (number of apoptotic cells/cm2)” value in the assay on SOJ-6 cells [1] (24 h, compared to RPMI and mouse IgM) is “leads to the apoptosis of SOJ-6 cells”. Also, the “apoptosis by caspase activity (number of apoptotic cells compared to control)” value in the assay with SOJ-6 cells [1] (SOJ-6, 24 hours, 16D10 25 μg/ml, recombinant chimeric 16D10 5 μg/ml) is “clearly enhanced”. For the same molecule, the “caspases through which apoptosis is stimulated” value with SOJ-6 cells [1] (cells pre-treated with or without caspase inhibitors) is “stimulates apoptosis through the caspase-3, caspase-8, and caspase-9”. The “apoptosis observed by DAPI staining (nuclear fragmentation)” value with SOJ-6 cells [2] is “significant levels of apoptosis”. In assay [3], the Bax protein level entry is reported as “increase of Bax protein”; the “anti-apoptotic protein Bcl-2 level” value was “decrease of the anti-apoptotic protein Bcl-2”; the “mediators of induced apoptosis (caspases, PARP cleavage)” value was “mediated via caspases 8 and 9, and poly-ADP ribose polymerase (PARP) cleavage”. Moreover, the “% growth of cells” value with SOJ-6 cells [4] was “does cause a decrease in SOJ-6 cells”. Besides, the “effect on the cell cycle” value with PANC-1 cells is given as “no effect on the cell cycle was observed”. For the same molecule, the “binding to antigen on PANC-1 cells” value in assay [5] is on record as “did not bind antigen present on PANC-1 cells”. In the assay with living cells in culture, the “fraction of mAb internalized” value is “virtually all”.
